Entries after “also recorded” stand apart in the source; their conditions may differ.
B1: rLG3: recombinant His6-tagged LG3 domain, residues 1128-1364 of human laminin α3 chain (protein, listed as Homo sapiens)
chain: VRLNDTVGVTKKCSEDWKLVRSASFSRGGQLSFTDLGLPPTDHLQASFGFQTFQPSGILLDHQTWTRNLQVTLEDGYIELSTSDSGGPIFKSPQTYMDGLLHYVSVISDNSGLRLLIDDQLLRNSKRLKHISSSRQSLRLGGSNFEGCISNVFVQRLSLSPEVLDLTSNSLKRDVSLGGCSLNKPPFLMLLKGSTRFNKTKTFRINQLLQDTPVASPRSVKVWQDACSPLPKTQANH
modifications: His6 tag
notes: recombinant His6-tagged LG3 domain, residues 1128-1364 of human laminin α3 chain

Columns and labels:
HOK-16B cells = assay: Cell spreading activity assay on coated plates; type: cell-based, human; settings: spreading cells divided by total bound cells, coated plates
Method: To identify spreading cells, attached cells were fixed with 10% formalin in PBS for 15 min, rinsed twice with PBS, and stained with 0.005% crystal violet for 1 h. The plates were then gently rinsed with DDW. To ensure a representative count, each plate was divided into quarters, two fields per quarter were photographed using an Olympus BX51 microscope at 100× magnification. Cells that had adopted a flattened, polygonal shape, with filopodia-and lamellipodia-like extensions were considered to be spreading cells. In contrast, cells that resisted being washed and remained tethered to the plate surface were considered to be non-spreading cells.
To examine the adhesion activity of peptide P4 in detail, the inventors examined whether the adherent cells were tethered to the substratum or spread over the substratum. The BSA and rLG3 were used as the negative control and positive control, respectively, the percentage of cells displaying a spreading morphology was quantified by dividing the number of spreading cells by the total number of bound cells.

integrin α3β1 = biological target: T1, integrin α3β1 (Homo sapiens, UniProt P05556+P26006); assay: Adhesion activity inhibition assay with function-blocking anti-integrin mAbs or EDTA; type: cell-based; settings: 25 μg/ml rLG3 or 10 μg/well peptide P4 coating; for inhibition of cell adhesion activity by anti-integrin β1 antibody: 5 μg/ml mAb (6S6) preincubation 30 min; for inhibition of cell adhesion activity by anti-integrin α3 antibody: 5 μg/ml mAb (P1B5) preincubation 30 min; for effect of EDTA on cell adhesion: 5 mM EDTA preincubation 30 min
T1 construct: it is confirmed that the HOK-16B cells expressed several integrins, including α3β1, α6β1, and α6β4; endogenous in cells; host or cells: HOK-16B (HPV-16-immortalized human oral keratinocytes)
T1 sequence (P26006 33-872 limits assumed): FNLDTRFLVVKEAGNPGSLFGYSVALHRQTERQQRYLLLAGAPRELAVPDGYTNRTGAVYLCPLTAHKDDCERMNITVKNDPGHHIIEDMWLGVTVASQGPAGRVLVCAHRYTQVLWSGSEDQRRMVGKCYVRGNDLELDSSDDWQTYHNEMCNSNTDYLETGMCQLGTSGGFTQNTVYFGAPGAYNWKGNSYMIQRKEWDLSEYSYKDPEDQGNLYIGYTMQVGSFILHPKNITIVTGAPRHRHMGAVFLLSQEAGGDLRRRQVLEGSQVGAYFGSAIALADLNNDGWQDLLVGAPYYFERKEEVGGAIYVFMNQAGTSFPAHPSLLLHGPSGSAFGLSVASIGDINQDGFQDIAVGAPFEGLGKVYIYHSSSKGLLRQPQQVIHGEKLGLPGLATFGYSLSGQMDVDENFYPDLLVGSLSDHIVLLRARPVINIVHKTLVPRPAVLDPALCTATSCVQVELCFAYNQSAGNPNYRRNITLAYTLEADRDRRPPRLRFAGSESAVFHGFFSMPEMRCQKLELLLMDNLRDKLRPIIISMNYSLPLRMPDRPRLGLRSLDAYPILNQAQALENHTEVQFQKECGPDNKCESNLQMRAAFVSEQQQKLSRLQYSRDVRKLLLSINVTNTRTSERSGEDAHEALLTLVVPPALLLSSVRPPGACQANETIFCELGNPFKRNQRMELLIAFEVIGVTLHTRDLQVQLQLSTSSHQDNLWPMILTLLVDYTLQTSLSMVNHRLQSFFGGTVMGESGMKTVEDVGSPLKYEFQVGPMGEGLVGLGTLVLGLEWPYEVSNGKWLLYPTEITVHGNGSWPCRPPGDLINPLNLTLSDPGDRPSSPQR
T1 sequence (P26006 873-1051 limits assumed): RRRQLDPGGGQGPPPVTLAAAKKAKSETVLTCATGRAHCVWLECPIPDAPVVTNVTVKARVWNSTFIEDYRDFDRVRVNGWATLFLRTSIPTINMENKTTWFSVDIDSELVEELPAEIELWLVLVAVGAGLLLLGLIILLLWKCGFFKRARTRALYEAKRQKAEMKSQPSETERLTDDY
T1 sequence (P05556 21-798): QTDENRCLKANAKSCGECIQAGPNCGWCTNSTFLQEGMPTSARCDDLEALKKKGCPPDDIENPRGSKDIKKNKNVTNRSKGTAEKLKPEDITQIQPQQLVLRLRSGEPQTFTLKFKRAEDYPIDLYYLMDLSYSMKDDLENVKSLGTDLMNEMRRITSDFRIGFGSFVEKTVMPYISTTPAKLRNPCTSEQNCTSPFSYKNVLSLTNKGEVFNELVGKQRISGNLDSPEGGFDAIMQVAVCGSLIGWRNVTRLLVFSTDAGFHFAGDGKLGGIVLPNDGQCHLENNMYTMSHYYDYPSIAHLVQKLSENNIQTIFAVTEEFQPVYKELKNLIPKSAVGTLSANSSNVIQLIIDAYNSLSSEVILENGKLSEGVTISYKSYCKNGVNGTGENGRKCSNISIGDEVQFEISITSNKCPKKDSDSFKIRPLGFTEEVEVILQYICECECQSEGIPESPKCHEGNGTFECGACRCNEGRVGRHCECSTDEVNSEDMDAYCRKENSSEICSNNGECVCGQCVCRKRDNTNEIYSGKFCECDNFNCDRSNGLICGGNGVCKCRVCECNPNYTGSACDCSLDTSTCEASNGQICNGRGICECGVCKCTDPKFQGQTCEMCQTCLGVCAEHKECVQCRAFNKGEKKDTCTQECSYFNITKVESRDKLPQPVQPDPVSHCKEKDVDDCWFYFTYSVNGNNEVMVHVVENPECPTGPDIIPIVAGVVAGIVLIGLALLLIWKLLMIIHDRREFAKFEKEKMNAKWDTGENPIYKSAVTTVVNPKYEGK
Method: To identify the receptor of the HOK-16B cells for rLG3 protein and peptide P4, 5 μg/ml of mAbs to different types of integrins or 5 mM EDTA were preincubated individually with HOK-16B cells in 0.5 ml incubation solution (2×10^5 cells/ml) for 30 min at 37° C. The preincubated cells were then transferred onto plates precoated with either 25 μg/ml of rLG3 protein or 10 μg/well of peptide P4 and incubated for 1 h at 37° C. Attached cells were then quantified by the cell adhesion assay described above in the Experimental Example 2, and cell adhesion activity inhibition rate were measured.
Meanwhile, the ligand-integrin interaction were known to require a divalent cation. To determine the role of cations in the interaction, the present inventors examined the effect of metal-chelating reagent, EDTA, on HOK-16B cell adhesion to the rLG3- and peptide P4-coated plates. HOK-16B cells were preincubated with 5 mM EDTA or 5 μg/ml function-blocking mAbs (Chemicon Temecula, CA) against integrin α3 (P1B5), β1 (6S6), α6 (NK I-GoH3) subunits for 30 min at 37° C. and plated on 25 μg/ml rLG3-precoated plate, and then cultured for 1 hr. After the unbound cells were washed off, the adherent cells were fixed to stain with crystal violet, and the stained cells were analyzed. The average adhesion activity of control cultures (HOK-16B cells preincubated without EDTA or integrin antibodies) were considered 100%.

FAK = FAK phosphorylation assay (immunoblot, p-FAK/t-FAK); type: cell-based, human; settings: 15 min
Method: The FAK phosphorylation assays were performed according to a method of Shang et al. (J. Biol. Chem., 276:33045, 2001). In detail, the HOK-16B cells were trypsinized, washed, and kept in suspension in serum-free KGM with 0.1% BSA for 1 h at 37° C. The 60-mm culture dishes were coated with laminin (5 μg/ml) or rLG3 protein (25 μg/ml) at 4° C. overnight. Peptides (50 μg/60-mm culture dish) were also coated on dishes by drying overnight. For the adherent FAK assay, 1×10^6 cells were plated onto uncoated, laminin-coated, rLG3 protein-coated, or various peptide-coated dishes and allowed to attach for 15, 30, or 60 min at 37° C. in an atmosphere of 5% CO2. At the end of the incubation, cells were washed with ice-cold PBS and lysed in RIPA buffer (50 mM Tris [pH 7.4], 150 mM NaCl, 1% Nonidet P-40, 0.5% Na-deoxycholate, 1 mM EDTA, 0.1% SDS, 2 mM Na3VO4, 1 mM glycerol phosphate, 1 mM PMSF, and protease inhibitor cocktail). Lysates were clarified by centrifugation at 12,000×g for 10 min at 4° C. to isolate cytosolic extracts.
The cytosolic extracts were denatured using SDS sample buffer [50 mM Tris-HCl (pH 6.8), 2% SDS, 10% glycerol, 0.1% bromophenol blue, 100 mM β-mercaptoethanol] and separated on an 8% SDS-polyacrylamide gel. Electrophoretic transfer of SDS-PAGE gel separated with protein to a nitrocellulose membrane was followed by immnoblotting with polyclonal anti-FAK antibodies to determine the total FAK level or immnoblotting with polyclonal anti-FAK [pY^397], [pY^407], [pY^576], [pY^577] or [pY^861] antibodies to determine the extent of tyrosine phosphorylation. The relative fold induction of FAK phosphorylation, defined as an increase in FAK phosphorylation of a sample relative to its corresponding background level (i.e., cells plated on plastic) was determined as follows: First, the densitomerty intensity of the phosphorylated FAK (p-FAK) and the total FAK (t-FAK) signals from the Western blots were measured with a LAS-1000plus (Fuji photo film, Japan). The ratio of p-FAK to t-FAK (p-FAK/t-FAK) for each sample was then calculated to correct for differences in protein loading. This ratio was normalized to the p-FAK/t-FAK ratio of the negative controls to obtain the relative fold induction of FAK phosphorylation.
HOK-16B cells isolated by trypsinization were suspended for 1 hr, and kept in suspension (Sus), or replated on 60-mm culture dishes coated with or without laminin (5 μg/ml). The cells were kept for 15, 30, or 60 min for being attached on plates, then cell lysates were analyzed by immunoblot analysis with anti-FAK p-Y397 antibody (Biosource, Camariollo, Calif.). […] This effect was observed within 15 min and peaked at 15 min after exposure to the laminin-coated plate (FIG. 8A).
Therefore, the extent of FAK phosphorylation at Tyr-397,-407,-576, -577, and -861 was investigated in HOK-16B cells cultured on plates coated with laminin (5 μg/ml), rLG3 (25 μg/ml), or peptides P1-P5 (50 μg/60-mm dish) for 15 min. The lysates were immnoblotted with polyclonal anti-FAK, p-Y397, p-Y407, p-Y576, p-Y577 or p-Y861 antibodies (Biosoucce, Camariollo, Calif.), and the total FAK level was detected using anti-FAK antibodies (Upstate Biotechnology, Lake Placid, N.Y. The ratio of p-FAK to t-FAK (p-FAK/t-FAK) for each sample was then calculated to correct for differences in protein loading. This ratio was normalized to the p-FAK/t-FAK ratio of the negative controls (cells on plates) to obtain the relative fold induction of FAK phosphorylation. As a result, the extent of FAK phosphorylation at Tyr-397 cultured on the laminin-coated or rLG3 protein-coated plates increased 16.2- and 8.2-fold compared with the untreated control (FIG. 8B).

Molecule	HOK-16B cells displaying a spreading morphology (HOK-16B cells)	inhibition of cell adhesion activity by anti-integrin β1 antibody (integrin α3β1)	inhibition of cell adhesion activity by anti-integrin α3 antibody (integrin α3β1)	effect of EDTA on cell adhesion (integrin α3β1)	FAK phosphorylation level at Tyr-577 (FAK; HOK-16B cells on coated dishes, peptides 50 μg/60-mm dish)	changes of the FAK phosphorylation levels at Tyr-407, -576 and -861 (FAK; HOK-16B cells on coated dishes)	increase of FAK phosphorylation at Tyr-397 compared with the untreated control (FAK; HOK-16B cells, laminin 5 μg/ml or rLG3 25 μg/ml coating, p-FAK/t-FAK normalized)
PPFLMLLKGSTR [peptide P4]	35%	54%	49%	decrease in cell adhesion	higher than that in the cells spread on the other peptides; also recorded: lower than that on laminin	–	–
B1	47%	71%	71%	almost completely inhibited	–	not observed	8.2 fold

— US7517654B2, “Peptide and a derivative thereof promoting cell adhesion and spreading” (Seoul National University Industry Foundation, priority 2004, dated 2009)
